Test results published in patent US20090022738A1 (MICROMET, published 2009).

T1: Epithelial cell adhesion molecule (EpCAM) (human, UniProt P16422 24-314)
T1 construct: whole, on cells; also called 17-1A antigen; KSA
T1 sequence (looked up): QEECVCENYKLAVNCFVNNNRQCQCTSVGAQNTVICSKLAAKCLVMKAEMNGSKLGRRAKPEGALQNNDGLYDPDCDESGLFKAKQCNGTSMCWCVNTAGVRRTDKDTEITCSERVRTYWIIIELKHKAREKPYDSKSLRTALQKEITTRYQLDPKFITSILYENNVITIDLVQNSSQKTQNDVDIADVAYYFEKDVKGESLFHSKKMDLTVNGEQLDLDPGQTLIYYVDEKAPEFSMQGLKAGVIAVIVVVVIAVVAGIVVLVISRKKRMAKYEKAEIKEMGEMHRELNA

B1: deimmunized anti-CD3 (VH5/VL2)×3-1 (SEQ ID NO.:31) (bispecific antibody)
chain: DVQLVQSGAEVKKPGASVKVSCKASGYTFTRYTMHWVRQAPGQGLEWIGYINPSRGYTNYADSVKGRFTITTDKSTSTAYMELSSLRSEDTATYYCARYYDDHYCLDYWGQGTTVTVSSGEGTSTGSGGSGGSGGADDIVLTQSPATLSLSPGERATLSCRASQSVSYMNWYQQKPGKAPKRWIYDTSKVASGVPARFSGSGSGTDYSLTINSLEAEDAATYYCQQWSSNPLTFGGGTKVEIKSGGGGSEVQLLEQSGAELVKPGASVKISCKASGYAFTNYWLGWVKQRPGHGLEWIGDLFPGSGNTHYNERFRGKATLTADKSSSTAFMQLSSLTSEDSAVYFCARLRNWDEAMDYWGQGTTVTVSSGGGGSGGGGSGGGGSELVMTQSPSYLAASPGETITINCRASKSISKYLAWYQEKPGKTNKLLIYSGSTLQSGIPSRFSGSGSGTDFTLTISSLEPEDFAMYYCQQHNEYPYTFGGGTKLEIK
notes: Bispecific single chain, VH(CD3)-VL(CD3)-VH(EpCAM)-VL(EpCAM); detected by anti-His
B2: deimmunized anti-CD3 (VH5/VL2)×5-10 (SEQ ID NO.:37) (bispecific antibody)
chain: DVQLVQSGAEVKKPGASVKVSCKASGYTFTRYTMHWVRQAPGQGLEWIGYINPSRGYTNYADSVKGRFTITTDKSTSTAYMELSSLRSEDTATYYCARYYDDHYCLDYWGQGTTVTVSSGEGTSTGSGGSGGSGGADDIVLTQSPATLSLSPGERATLSCRASQSVSYMNWYQQKPGKAPKRWIYDTSKVASGVPARFSGSGSGTDYSLTINSLEAEDAATYYCQQWSSNPLTFGGGTKVEIKSGGGGSEVQLLEQSGAELVRPGTSVKISCKASGYAFTNYWLGWVKQRPGHGLEWIGDIFPGSGNIHYNEKFKGKATLTADKSSSTAYMQLSSLTFEDSAVYFCARLRNWDEPMDYWGQGTTVTVSSGGGGSGGGGSGGGGSELVMTQSPSSLTVTAGEKVTMSCKSSQSLLNSGNQKNYLTWYQQKPGQPPKLLIYWASTRESGVPDRFTGSGSGTDFTLTISSVQAEDLAVYYCQNDYSYPLTFGAGTKLEIK
notes: Bispecific single chain, VH(CD3)-VL(CD3)-VH(EpCAM)-VL(EpCAM); expressed in CHO with a leader peptide; detected by anti-His
B3: deimmunized anti-CD3 (VH5/VL2)×5-10 (VL-VH) (SEQ ID NO.:39) (bispecific antibody)
chain: DVQLVQSGAEVKKPGASVKVSCKASGYTFTRYTMHWVRQAPGQGLEWIGYINPSRGYTNYADSVKGRFTITTDKSTSTAYMELSSLRSEDTATYYCARYYDDHYCLDYWGQGTTVTVSSGEGTSTGSGGSGGSGGADDIVLTQSPATLSLSPGERATLSCRASQSVSYMNWYQQKPGKAPKRWIYDTSKVASGVPARFSGSGSGTDYSLTINSLEAEDAATYYCQQWSSNPLTFGGGTKVEIKSGGGGSELVMTQSPSSLTVTAGEKVTMSCKSSQSLLNSGNQKNYLTWYQQKPGQPPKLLIYWASTRESGVPDRFTGSGSGTDFTLTISSVQAEDLAVYYCQNDYSYPLTFGAGTKLEIKGGGGSGGGGSGGGGSEVQLLEQSGAELVRPGTSVKISCKASGYAFTNYWLGWVKQRPGHGLEWIGDIFPGSGNIHYNEKFKGKATLTADKSSSTAYMQLSSLTFEDSAVYFCARLRNWDEPMDYWGQGTTVTVSS
notes: Bispecific single chain, VH(CD3)-VL(CD3)-VL(EpCAM)-VH(EpCAM); detected by anti-His; also called anti-CD3 (VH5/VL2)x5-10 (VL-VH)
B4: deimmunized anti-CD3 (VH5/VL2)×4-7 (SEQ ID NO.:33) (bispecific antibody)
chain: DVQLVQSGAEVKKPGASVKVSCKASGYTFTRYTMHWVRQAPGQGLEWIGYINPSRGYTNYADSVKGRFTITTDKSTSTAYMELSSLRSEDTATYYCARYYDDHYCLDYWGQGTTVTVSSGEGTSTGSGGSGGSGGADDIVLTQSPATLSLSPGERATLSCRASQSVSYMNWYQQKPGKAPKRWIYDTSKVASGVPARFSGSGSGTDYSLTINSLEAEDAATYYCQQWSSNPLTFGGGTKVEIKSGGGGSEVQLLEQSGAELARPGASVKLSCKASGYTFTNYGLSWVKQRPGQVLEWIGEVYPRIGNAYYNEKFKGKATLTADKSSSTASMELRSLTSEDSAVYFCARRGSYDTNYDWYFDVWGQGTTVTVSSGGGGSGGGGSGGGGSELVMTQTPLSLPVSLGDQASISCRSSQSLVHSNGNTYLHWYLQKPGQSPKLLIYKVSNRFSGVPDRFSGSGSGTDFTLKISRVEAEDLGVYFCSQSTHVPYTFGGGTKLEIK
notes: Bispecific single chain, VH(CD3)-VL(CD3)-VH(EpCAM)-VL(EpCAM); detected by anti-His; also called anti-CD3 (VH5/VL2)x4-7

The binders below were run against T1, Epithelial cell adhesion molecule … (assay: FACS, 10 µg/ml on EpCAM positive Kato III cells).
Experimental: (§1) Binding of the bispecific single chain molecules with anti-CD3 part in N-terminal orientation to EpCAM and CD3 were confirmed by FACS analyses. For that purpose the EpCAM positive human gastric cancer cell line Kato III (ATCC HTB-103) was used.
(§2) Cells were cultured according to the recommendations of the supplier and a number of 200000 cells was incubated with 10 μg/ml of the construct in 50 μl PBS with 2% FCS (fetal calf serum). The binding of the construct was detected with an anti-His antibody (Penta-His Antibody, obtained from Qiagen, Hilden, FRG) at 2 μg/ml in PBS with 2% FCS. […] The samples were measured on a FACSscan (BD biosciences, Heidelberg, FRG).

| Binder | binding result |
| --- | --- |
| B1 | binds |
| B2 | binds |
| B3 | binds |
| B4 | binds |

Each binder was assayed against T2, human CD3 (human, UniProt P07766 23-207; P04234 22-171; P09693 23-182) (assay: FACS, 10 µg/ml on Jurkat cells).
T2 construct: whole, on cells; also called CD3 antigen; human CD3 complex
Experimental: as §1, §2

| Binder | binding result |
| --- | --- |
| B1 | binds |
| B2 | binds |
| B3 | binds |
| B4 | binds |
